Data reported in patent US20200283483A1 (TECHNISCHE UNIVERSITAET MUENCHEN, published 2020).
Square brackets hold non-standard residues; d marks the D form. dNMeF = CN[C@H](Cc1ccccc1)C(=O)O; NMeA = CN[C@@H](C)C(=O)O

Experiments:
human αvβ6-Integrin = target: T1, human αvβ6-Integrin (human, UniProt P06756 31-992; P18564 22-707); assay: solid-phase competition ELISA, soluble αvβ6 on coated LAP (TGF-β)
T1 construct: soluble integrin bought from R&D

human αvβ3-integrin = target: T2, human αvβ3-integrin (human, UniProt P06756 31-992; P05106 27-718); assay: solid-phase competition ELISA, soluble αvβ3 on coated vitronectin
T2 construct: soluble integrin bought from R&D; also called integrin αvβ3
T2 sequence (P06756 31-992 limits assumed, chain 1 of 2): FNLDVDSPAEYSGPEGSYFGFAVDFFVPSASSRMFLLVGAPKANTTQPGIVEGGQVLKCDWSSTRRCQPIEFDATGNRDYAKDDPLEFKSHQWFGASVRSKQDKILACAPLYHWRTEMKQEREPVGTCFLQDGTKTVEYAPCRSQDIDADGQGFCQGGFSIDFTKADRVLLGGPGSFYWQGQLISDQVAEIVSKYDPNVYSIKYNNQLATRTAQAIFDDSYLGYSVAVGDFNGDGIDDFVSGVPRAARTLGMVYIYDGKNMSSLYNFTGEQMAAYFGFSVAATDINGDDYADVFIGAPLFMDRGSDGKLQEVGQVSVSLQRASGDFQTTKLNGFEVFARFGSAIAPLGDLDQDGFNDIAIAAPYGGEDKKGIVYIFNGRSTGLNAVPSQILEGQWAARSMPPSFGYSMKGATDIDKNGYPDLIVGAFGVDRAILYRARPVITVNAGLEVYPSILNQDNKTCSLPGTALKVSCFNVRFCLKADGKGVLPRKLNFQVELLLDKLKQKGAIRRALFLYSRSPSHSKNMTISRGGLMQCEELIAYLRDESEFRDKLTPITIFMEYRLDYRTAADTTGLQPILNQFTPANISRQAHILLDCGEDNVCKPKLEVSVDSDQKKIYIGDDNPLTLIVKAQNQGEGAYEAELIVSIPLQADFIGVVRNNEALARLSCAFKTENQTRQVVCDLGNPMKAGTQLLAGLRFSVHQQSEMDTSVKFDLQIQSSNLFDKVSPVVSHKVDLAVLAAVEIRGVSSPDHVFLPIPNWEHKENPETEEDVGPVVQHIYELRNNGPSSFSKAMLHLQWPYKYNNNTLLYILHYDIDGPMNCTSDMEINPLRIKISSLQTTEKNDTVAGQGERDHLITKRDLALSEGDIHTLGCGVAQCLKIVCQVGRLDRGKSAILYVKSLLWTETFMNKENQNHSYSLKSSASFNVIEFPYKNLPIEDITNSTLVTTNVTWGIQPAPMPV
T2 sequence (P05106 27-718 limits assumed, chain 2 of 2): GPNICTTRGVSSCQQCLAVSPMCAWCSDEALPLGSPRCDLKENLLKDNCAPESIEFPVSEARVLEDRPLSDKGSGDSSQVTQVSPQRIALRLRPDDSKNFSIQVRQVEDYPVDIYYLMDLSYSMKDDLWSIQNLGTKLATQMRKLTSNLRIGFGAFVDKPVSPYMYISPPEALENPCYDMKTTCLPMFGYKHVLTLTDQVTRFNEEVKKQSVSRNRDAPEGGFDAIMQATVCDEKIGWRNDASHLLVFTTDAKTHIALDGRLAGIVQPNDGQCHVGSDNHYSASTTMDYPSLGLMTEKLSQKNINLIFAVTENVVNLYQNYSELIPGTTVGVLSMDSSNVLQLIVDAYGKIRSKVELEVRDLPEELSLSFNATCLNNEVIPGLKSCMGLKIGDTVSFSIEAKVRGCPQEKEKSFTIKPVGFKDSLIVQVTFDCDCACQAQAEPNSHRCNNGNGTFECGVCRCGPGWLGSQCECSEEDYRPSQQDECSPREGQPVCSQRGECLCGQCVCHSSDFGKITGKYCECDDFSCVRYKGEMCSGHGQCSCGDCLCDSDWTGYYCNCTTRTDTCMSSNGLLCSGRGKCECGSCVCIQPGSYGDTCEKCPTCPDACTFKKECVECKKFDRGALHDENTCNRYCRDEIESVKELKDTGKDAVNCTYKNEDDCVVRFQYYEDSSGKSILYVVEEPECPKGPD

human αvβ5-integrin = target: T3, human αvβ5-integrin (human, UniProt P06756 31-992; P18084 24-719, limits assumed); assay: solid-phase competition ELISA, soluble αvβ5 on coated vitronectin
T3 construct: soluble integrin bought from Millipore
T3 sequence (P06756 31-992 limits assumed, chain 1 of 2): as the sequence (P06756 31-992 limits assumed, chain 1 of 2) above
T3 sequence (P18084 24-719 limits assumed, chain 2 of 2): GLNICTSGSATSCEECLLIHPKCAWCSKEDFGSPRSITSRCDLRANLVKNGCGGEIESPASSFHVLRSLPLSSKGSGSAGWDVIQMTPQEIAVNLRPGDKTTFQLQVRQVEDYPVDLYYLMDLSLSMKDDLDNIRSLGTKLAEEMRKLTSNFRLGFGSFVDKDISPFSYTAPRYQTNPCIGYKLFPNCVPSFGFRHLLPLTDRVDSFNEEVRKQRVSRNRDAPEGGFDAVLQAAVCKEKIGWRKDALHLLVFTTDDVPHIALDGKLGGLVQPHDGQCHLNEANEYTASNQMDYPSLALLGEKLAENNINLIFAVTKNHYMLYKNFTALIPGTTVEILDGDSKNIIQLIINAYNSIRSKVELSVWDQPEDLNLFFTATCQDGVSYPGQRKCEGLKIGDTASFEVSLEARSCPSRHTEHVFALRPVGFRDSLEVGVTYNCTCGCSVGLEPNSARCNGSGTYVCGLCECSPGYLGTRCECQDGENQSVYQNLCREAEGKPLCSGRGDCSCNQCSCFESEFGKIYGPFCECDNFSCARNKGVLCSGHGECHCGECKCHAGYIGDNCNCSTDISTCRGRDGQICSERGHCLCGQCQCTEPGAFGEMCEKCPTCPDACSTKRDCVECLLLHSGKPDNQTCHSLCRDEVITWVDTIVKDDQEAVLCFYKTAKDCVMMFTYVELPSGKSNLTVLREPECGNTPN

T1 sequence (P06756 31-992 limits assumed, chain 1 of 2): as the sequence (P06756 31-992 limits assumed, chain 1 of 2) above
T1 sequence (P18564 22-707 limits assumed, chain 2 of 2): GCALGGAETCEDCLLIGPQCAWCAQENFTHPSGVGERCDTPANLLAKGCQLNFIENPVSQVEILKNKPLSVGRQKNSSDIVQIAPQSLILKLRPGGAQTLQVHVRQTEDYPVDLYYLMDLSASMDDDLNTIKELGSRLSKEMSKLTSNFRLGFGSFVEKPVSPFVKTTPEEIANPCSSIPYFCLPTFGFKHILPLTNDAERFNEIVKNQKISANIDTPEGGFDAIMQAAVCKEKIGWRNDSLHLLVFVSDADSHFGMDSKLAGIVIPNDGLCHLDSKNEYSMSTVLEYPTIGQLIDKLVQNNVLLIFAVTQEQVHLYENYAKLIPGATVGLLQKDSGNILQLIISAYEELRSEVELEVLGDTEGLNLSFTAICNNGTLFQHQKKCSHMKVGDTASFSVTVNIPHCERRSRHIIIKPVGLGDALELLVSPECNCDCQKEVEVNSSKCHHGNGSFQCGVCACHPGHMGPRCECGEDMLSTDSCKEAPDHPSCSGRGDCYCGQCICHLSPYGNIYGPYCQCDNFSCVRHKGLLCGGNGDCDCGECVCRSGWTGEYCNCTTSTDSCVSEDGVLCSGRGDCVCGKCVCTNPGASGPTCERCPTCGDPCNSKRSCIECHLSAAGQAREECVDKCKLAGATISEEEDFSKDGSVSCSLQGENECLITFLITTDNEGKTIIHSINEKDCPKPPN

In the case of cyclo([dNMeF]RGDA[NMeA]) (scaffold NMe(1,6)) [peptide #30 c(*fRGDA*A)], the IC50 (human αvβ6-Integrin) is reported as 120 nM, the IC50 (human αvβ3-integrin) is reported as 0.6 nM and the IC50 (human αvβ5-integrin) is reported as 145 nM.
